Conditions: Escherichia coli (strain K12), Thermal, CD, NaCl 0.1 M, reversible: yes, whole UniProt chain shown

B1: Ribonuclease HI wild type, P0A7Y4 (protein)
chain: MLKQVEIFTDGSCLGNPGPGGYGAILRYRGREKTFSAGYTRTTNNRMELMAAIVALEALKEHCEVILSTDSQYVRQGITQWIHNWKKRGWKTADKKPVKNVDLWQRLDAALGQHQIKWEWVKGHAGHPENERCDELARAAAMNPTLEDTGYQVEV
Tm (pH 3, glycine-HCl 10 mM): 49.8 °C | Tm (pH 5.5, Sodium acetate 20 mM): 52 °C

Source: FireProtDB (doi:10.1021/bi00416a052)
